Experiment [1] deals with AtcyclinD2;1/AtCDKA active kinase complex (Arabidopsis) (UniProt P42752). Briefly: cell-based or functional assay.
In experiment [2] the target is T1, AtcyclinD2;1/AtCDKA active kinase complex (Arabidopsis, UniProt P42752 1-361; P24100 1-294). Description: cell-based or functional assay.
Experiment [3] addresses T2, Arabidopsis cyclin D2;1 (AtcyclinD2;1), FLAG tagged (Arabidopsis, UniProt P42752 1-361).
T2 construct: Made in Sf9 insect cells from the pAcHLT transfer vector; used as insect cell protein extract
T2 sequence: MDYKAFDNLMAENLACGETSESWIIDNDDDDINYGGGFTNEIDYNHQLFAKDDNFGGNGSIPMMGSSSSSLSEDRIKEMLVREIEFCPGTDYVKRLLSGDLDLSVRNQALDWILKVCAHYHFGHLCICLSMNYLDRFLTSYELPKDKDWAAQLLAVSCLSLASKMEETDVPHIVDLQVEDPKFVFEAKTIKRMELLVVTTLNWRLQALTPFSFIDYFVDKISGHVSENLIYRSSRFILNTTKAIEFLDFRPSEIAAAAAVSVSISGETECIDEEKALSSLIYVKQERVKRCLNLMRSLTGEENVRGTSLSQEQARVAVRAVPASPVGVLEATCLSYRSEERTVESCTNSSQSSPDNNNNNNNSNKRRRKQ
Briefly: in vitro binding, graded (column Cyclin binding).

For experiment [4], the target named is T1, AtcyclinD2;1/AtCDKA active kinase …. Briefly: in vitro binding experiments.

This note sets out measurements from patent US20070056058A1 (TARGETED GROWTH, published 2007).

Numbering of substitutions follows the chain as printed. In names and notes the source's numbering stands.

T1 sequence (P24100 other isoform, or with tags, fused parts or gaps limits assumed): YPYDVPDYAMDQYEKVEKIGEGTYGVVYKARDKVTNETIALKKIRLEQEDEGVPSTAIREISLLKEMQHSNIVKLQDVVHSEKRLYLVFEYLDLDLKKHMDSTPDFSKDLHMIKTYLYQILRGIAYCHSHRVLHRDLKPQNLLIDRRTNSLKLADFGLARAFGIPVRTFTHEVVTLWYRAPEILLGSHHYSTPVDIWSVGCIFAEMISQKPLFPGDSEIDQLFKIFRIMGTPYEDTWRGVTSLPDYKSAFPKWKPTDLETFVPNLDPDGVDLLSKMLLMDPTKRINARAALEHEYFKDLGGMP
Chain of AtcyclinD2;1/AtCDKA active kinase complex (Arabidopsis) (P24100 other isoform, or with tags, fused parts or gaps limits assumed): as above

In experiment [1], “BnKrp1 #462 (E129A, E130A, I131A, D132A), cyclin binding region mutant” yielded an IC50 (inhibitory concentration that reduces the kinase activity by 50%) of 1.25 µg.

Take BnKrp1 E164A; W165A, construct #555: in experiment [1], the kinase activity restored by 5 µg mutant in the presence of wild-type KRP1 was found to be 14% and the kinase activity restored by 10 µg mutant in the presence of wild-type KRP1 worked out at 15%.

Take “BnKrp1 Y149A; F151A; F153A, construct #598”: in experiment [1], the kinase activity restored by 5 µg mutant in the presence of 0.6 µg wild-type KRP1 is less than 55% and the kinase activity restored by 10 µg mutant in the presence of wild-type KRP1 is less than 80%.

With “ZmKRP4 (maize KRP, Genbank accession # AY986792)”, the IC50 of kinase inhibition in experiment [1] stood at 0.035 µg.

B1: BnKRP1 wild type (Brassica napus Krp1), construct BnKrp #461 (other, not shown: small tags and cut ends)
chain: MVRKCRKTKGTVGASSTYMQLRSRRIVYRSEKASSSSSSCCASNNNGVIDLEEERDGETETSSCRRSSKRKLFENLREKESMENSQQIVAGFDSAVKESSDCCCSRRTSLSTTEEKGKSATEQPPTAVEIEDFFVEAEKQLHDNFKKKYNFDFEKEKPLEGRYEWVKL
With B1, in experiment [2], the “IC50 (inhibitory concentration that reduces the kinase activity by 50%)” value came out at 0.035 µg.

B2: BnKrp1 F151A, construct #572 (other)
chain: B1 chain with F151A
notes: also called BnKrp1 #572; not shown: N-terminal 6xHis and poly-Myc tags of pET16b-5MYC
Turning to B2, the binding result in experiment [3] and in experiment [4] was “binds” throughout.

B3: BnKrp1 Y149A, construct #587 (other)
chain: B1 chain with Y149A
notes: also called BnKrp1 #587; not shown: N-terminal 6xHis and poly-Myc tags of pET16b-5MYC
On to B3, for which the binding result in experiment [4] was “binds”.
